Data: article PMC2212291

Biological target: mouse class I molecule H-2 D^b (mouse | mouse (endogenous in MC57))

synthetic LCMV peptide NP396-404 was tested, and the binding plus extraction efficiency was 50%.
In the case of synthetic LCMV peptide GP276-286, the binding plus extraction efficiency was 38%.
With synthetic LCMV peptide GP33-41 the binding plus extraction efficiency was 17%.
